A short description of this series: soluble on expression in E. coli; label from the status in PepcDB or PDB records.
With “GASMDAIKKKMQMLKLDKENALDRAEQAEADKDFYFGKLRNIELICQENEGENDPVLQRIVDILYATDEGFVIPD”, the “soluble on expression in E. coli” value is reported as “soluble”. For “MGSSHHHHHHGKTIFVIVPTNEEQVAFLEALAKQDELNFDWQNPPTEPGQPVVILIPSDMVEWFLEMLKAKGIPFTVYVEEGGSENLYFQGGGGGGRAAGTGDFTAAQRTNTLAVLQAFGRAIPKLGEKWAGNDFCSWEAVLCNAPDVYVSGISPTYAGTLPEMPVNVDYRHVVIKQLDFSEMGPGLSGTLPASWHSMTSLESLSIEKCESISGSVPPEWGSMTSLSVLNLRGTGISGTLPPQWSGMSKARSLQLQDCDLSGSLPSSWSAIPMLASVSLKGNKFCGVCRTRGIRRLVLLWTSRTSTRAATAWLLRTAQRPPLSPPPRQRPPRTSLTFPLRRGPRLSRLPQPALRHRLNPQPPLRHRLNPRPLLPQQTRRLLHQRRSARWMGVRCARGTPLRGARGAVRTTS”, the “soluble on expression in E. coli” value is given as “not soluble”. For “MSLKHSKIRIAHISDIHIGSRLDKLPQKMVNKIIEENPDLVVITGDLIDSHNVISTDLASFNAFKERNIPIYYTIGNHDIMAGEEYVSSILEYYGIIYLKNQVTQITIGDETIQLVGIDDVQSITKYNEIFNSITPSIHNNIYTILLHHRPQGYKTSVQSGQIDLQLAGHTHDGQVFPFNYIVPLFHSKSYGMYHIKDEGHHHHHH”, the “soluble on expression in E. coli” value is reported as “not soluble”.

Take “MGSDKIHHHHHHMKYKNLFFDLDDTIWAFSRNARDTFEEVYQKYSFDRYFDSFDHYYTLYQRRNTELWLEYGEGKVTKEELNRQRFFYPLQAVGVEDEALAERFSEDFFAIIPTKSGLMPHAKEVLEYLAPQYNLYILSNGFRELQSRKMRSAGVDRYFKKIILSEDLGVLKPRPEIFHFALSATASALRESLMIGDSWEADITGAHGVGMHQAFYNVTERTVFPFQPTYHIHSLKELMNLL”: the “soluble on expression in E. coli” value is recorded as “not soluble”. The value for “PQKIFTPSAEIVKYTKIIAMEKLYAVFTDYEHDKVSRDEAVNKIRLDTEEHLKEKFPEVDQFEIIESFNIVAKEVFRSIILNEYKRCDGRD” was “soluble”. With “MDTMSQILKLLEKTDSIEINEFRMDVDELELTIMPTLQNVVQKVVEKQIEAKKEFESQIEFKYPVKDYAGKVNEVKLGGKNRKTVKLGGQTSLYRFEEPQPNAPTVTFDVFDIPMNGLPRPIKENFEDVMHSPGEWAQKAVKEFGADMITLHLIGTDPKVKDKSLKDAAKDLEEVLQAVKVPLVIGGSGNPKKDPLVLEMAAEVADGERCLLASANLDLDYQKIAQAAVKHDHAVLSWAISDINMQKVLNKALMKEGLTANDIVMDPTTCALGYGIEFSIDVMTRTRLSALKGDEILQMPMSSGTTNAWGSREAWMKKDEWGPTKYRGPIWEVVTGLTMMLCGVDIFMMLHPLSVKTLKEIGTTLTYEYKSKESQDISDWINKF”, the “soluble on expression in E. coli” value is given as “not soluble”.

With “MSQWHHPRSGWGRRRDFSGRSSAKKKGGNHIPERWKDYLPVGQRMPGTRFIAFKVPLQKSFEKKLAPEECFSPLDLFNKIREQNEELGLIIDLTYTQRYYKPEDLPETVPYLKIFTVGHQVPDDETIFKFKHAVNGFLKENKDNDKLIGVHCTHGLNRTGYLICIYLIDVEGVRPDDAIELFNRCRGHCLERQNYIEDLQNGPIRKNWNSSVPRSSDFEDSAHLMQPVHNKPVKQGPRYNLHQIQGHSAPRHFHTQTQSLQQSVRKFSENPHVYQRHHLPPPGPPGEDYSHRRYSWNVKPNASRAAQDRRRWYPYNYSRLSYPACWEWTQ”, the “soluble on expression in E. coli” value is given as “soluble”. In the case of “MAKLFFRYAAMNSGKSTQLLQIANNYESMDKKVALYTSAIDDRYGVGMITSRLNIQRESNTFDAGFDFLAHDYGDTACVLVDEAQFMTPEQAQQLHRLAHKRNIPVICFGLRTDFQGHPFPGSAWLLSLADDVEEIKTICHCGRKATMHIRIDGDGRRVKEGPQVEIGGEARYRAVCGRCFHHDLEHHHHHH”, the “soluble on expression in E. coli” value is “soluble”. With “MGSDKIHHHHHHMFRRIREDLIKNHMEGPQGFRSMLAGWVECGFCTIVEDEIRFWNGSRIYLCHCKDEKDRFKYQGAEIHVLLIDELTHFTEVIYRFLRNRVRMVGIKLPAKYAGRFPRILCGANPGGIGHQFVKATFIDGATAMKVYTTEASEGGMRRQFIPAQLEDNPSMNDNDPGYENRLMGLGSESLVRAMRYGDWDVVEGAYFDNFERRRHVVKPFTIPDHWIRFRAGDWGSAKPFAFGWYVVASDDTIIAPGVVVPRGALVKYREWYGVKIDKSGKFLPDVGLKLHAEAVGAGVRQRDYDDIIVYGVLDPAAFSQDGGPSIAERMTRGTTGSNGSTFRRADNKRTAGRGAMGGWDQLRGRLTGDGDGRPMLFFFDTCIHTIRTLPALQHDEANPEDLDTKQEDHAADETRYACMSRPWIAKSKVPAPQVPEGHIALPGAPDEAAGNRRIRI” the entry was “not soluble”; with “QLEKELEESAARYNQLAAQSRTITWEIDVTGLFTYVSPVVESVFGYLPNELVGAMRFYEIHPTEGRERFKTSFLEMFASKTIVEEVVHPVVAVDGRTIWMSTNALPILDEHGTLVGYRGACTDIS”, “not soluble”; with “MDGTMEDSEAVQRATALIEQRLAQEEENEKLRGDTRQKLPMDLLVLEDEKHHGAQSAALQKVKGQERVRKTSLDLRREIIDVGGIQNLIELRKKRKQKKRDALAASHEPPPEPEEITGPVDEETFLKAAVEGKMKVIEKFLADGGSADTCDQFRRTALHRASLEGHMEILEKLLDNGATVDFQDRLDCTAMHWACRGGHLEVVKLLQSHGADTNVRDKLLSTPLHVAVRTGQVEIVEHFLSLGLEINARDREGDTALHDAVRLNRYKIIKLLLLHGADMMTKNLAGKTPTDLVQLWQADTRHALEHPEPGAEHNGLEGPNDSGRETPQPVPAQLEHHHHHH”, “not soluble”. With “GPGSMRSAVNLGGAPRVPSQRLPAFEGVSPRIVARQVPAHRGEYVSLVLRPTSLNAQRNSLVASCVVTDESVEVMGLPADAEVAQVNEFVCYINPSSGELEYYQHGTYNDEYDVDVYRKLLELCPKFPALF” the entry was “not soluble”; with “MGSDKIHHHHHHMFYPEKRDGFSRTGKFEVEGRTVQTPAILEVGEIPEWDFGLAPTSLKFISEELYSRLRPINEEVEILTSLHLLSPRQLVQVFEDLSKEGVSPKPLYAASSALPSNVSLLIYLGADLVDNVLAIAKAYSGIYFLGEVEVEISKLRRLPCNCIHCRNRVVDEVENLLETTAKHNTEMLRMEVEKCRRLILNEELRNYVEGKVKLNPEFTAALRLSDSLRNHSTFPRFRKSRCNFSALESSSRFEVRYFFERALECYKPFSDTVLLLPCTARKPYLTSRTHRALRSKVKVNVNEIIISSPLVVPREFELLYPAVNYDTPVTGHWSEEEVSFVAGWLKRFIEKGGFRKVVAHVTGGYRKVVERVEDEVEAEVVYTAEKDVLSDESIERLKQEIESKGKVDLYRRILEHMLSYQFGITWSGKVAGRYPELELLEGKKRLARVDRIYGMLDIYEKIAAYLLEKNIYTVEIGDFEVKGTIFAGGVLRADEKIRPNDVVVFHNSRIFGVGLAAMSGKEMAGSEKGIAINVKRKFSF”, “not soluble”; with “MKNYKKYYIIPAPPEEVYLALTVPTTLLLWTGEEAVMSTEPESEFSLWGGSIEGRNIEFIEGKKIVQQWYFGDQEEPSIVTIILHPDKQDSTSAELRHTNIPDEAYEDMVEGWNGAYFGALQEFYEDEELEHHHHHH”, “soluble”. With “MGSDKIHHHHHHMTTDILNISEEQLVDYSKAHNEPSWMTELRKKALKLTETLEMPKPDKTKLRKWDFDSFKQHDVKGDVYQSLSQLPESVREIIDVDHSKNLVIQHNNTIAYTQVDDNASKDGVIVEGLADALMNHSDLVQKYFMKDAVTVDEHRITALHTALVNGGVFVYVPKNVVVEHPVQYVVLHDDENASFYNHVIIVTEESAEVTYVENYLSNASGEGNQLNIISEVIAGANSNITYGSVDYMDKGFTGHIIRRGITEADASINWALGLMNEGSQIIDNTTNLFGDRSTSSLKSVVIGTGEQKINLTSKIVQYGKETDGYILKHGVMKEHASSVFNGIGYIKHGGTKSIANQESRVLMLSEHARGDANPILLIDEDDVQAGHAASVGRVDPDQLYYLMSRGISQREAERLVIHGFLDPVVRELPIEDVKRQLREVIERKVSK” the entry was “not soluble”; with “MGSDKIHHHHHHDGDDMSSCSSHSSFGSEYSEENKVNCTIDNFPVQAIALERCDGTLDSLFTKENLAMKRPQLRSAMFQIVMSLRVLQKAFRFTHNDLHTNNVVWCATDRKYLFYKHNSKYYRVPTFGRIFKIIDFGRAIYRFRGETMCSDSYHPSGDAGSQYNCEPYFNPNKPLLEPHFGFDLARLGCSLYELVDAEDVDDNGIINEEKLGDVERMIVSWCRDDKGRNILFKRDGDERYPGFKLYKMIARTSHDHTPEKMLAGYVFDTYLMAAKKCKKQERLMDVDAIPDYTEVVVGGDGKEVNATS”, “not soluble”; with “LEGENSKQKVQMSIHQFTNICFKKCVESVNDSNLSSQEEQCLSNCVNRFLDTNIRIVNGLQNTR”, “soluble”. Take “MPNTPHTMNLYIKNIAQLVTCQGSEAKHGREAMGQIHTIEGPAAVVIRDGIIAFAGRMADVAPSMTEGCRELDATGRCVLPGFVDSHTHLVFGGYREDEFQWRLAGDSYMSIMERGGGIASTMRATRSESEDELKASARRHLSNMMKMGVTTVEAKSGYGMNLETELKQLRVVRDLQDEQPLDLYSTFMGAHDTAPEYKGRPTEFIEYLCREVLPEVVRQNLAECCDIFTEKGVFDHEQTRRMLTAAKEAGLSVKMHADEIVPFGGAELAAELGCLSADHLLRISDAGIKALAESNTVATLLPCTAFSLRADYAPARKMIDAGCAVALGSDLNPGSCFSASVPLMFALATLYMGMTVEEAITALTINGAAAIGRADTIGSIEPGKKGDLVVLQYPSYKFLSYHFGMNLVEHTVKGGRVVYTNS”: the “soluble on expression in E. coli” value was “not soluble”. Regarding “MFAHQNASFPPRPEGRGGKEAVFRLTVFCIITFSSLICEAMKRAYKYRFYPTTEQAELLAQTFGCVRFVYNSILRWRTDAYYERKEKIGYLQANARLTALKKEPEFAWLNDVSCVPLQQSLRHQQTAFANFFAGRAAYPAFKSKRHKQAAEFTASAFKYRDGKLYMAKNKIPLDVRWSRPLPSVPSTVTISKDAAGRYFVSCLCEFEPASLPITSSMVGIDVGLKDLFVTDTGFRSGNPRHTAKYAARLALLQRRLSKKAKGSKNRAKAHLKVARLHAKIADCRLDALHKATRKLINDNQVVCVESLKVRNMIRNPSLSKAIADASWGELVRQLRYKGEWAGRSVVAIDQFFPSSKRCSCCGFIMKKMPLDVRKWQCPECGTDHDRDVNAARNIKAAGLAVLAHGEPVNPESLKAALEHHHHHH”, the “soluble on expression in E. coli” value is listed as “not soluble”. Take “MGSDKIHHHHHHMMLQIPDVLSKAQVAQCRQMMDVADWTDGNATSGHQSALAKRNMQLPEGSPVARQIGDLIQDALGANATFFSAALPLKVFPPLFNRYEGGQAFDNHVDNAIRYLRGTGFRVRSDLSATLFLTEPQDYDGGELVIEDTYGQHRVKLPAGYMVLYPATSLHHVTPVTRGARVSSFFWIQSMVRDEGQRALLFELDTRIQQVAEEMGQKDSGVVGLTGVYHNLLRRWADA”: the “soluble on expression in E. coli” value is given as “not soluble”.

Take “MFGNLGQAKKYLGQAAKMLIGIPDYDNYVEHMKTNHPDKPYMSYEEFFRERQNARYGGDGKGGMRCC”: the “soluble on expression in E. coli” value is “soluble”. Take “MATNIGMMDSAYFVGRNEILTWINDRLHLNLSRVEEAASGAVQCQMLDMTFPGVVPMHKLVDLKISTDLLEKERDFYFSKLRDVEILCQTPELDDLPVNVSVEPIVVAVKKILYATDANESALEDAQEYLNQSLGVEDDEAEGNGEQLEEEKTQA”: the “soluble on expression in E. coli” value is recorded as “soluble”.

Values taken from the DeepSol protein solubility set.
